From US20190300605A1 (Pfizer, published 2019)
Positions count from the first letter of the chain named. Values belong to the binder of their own block, whether it stands above or below them.

Tests used:
recombinant mouse MAdCAM = biological target: T1, recombinant mouse MAdCAM (mouse, UniProt Q61826 22-365); experiment: ELISA
T1 sequence (looked up): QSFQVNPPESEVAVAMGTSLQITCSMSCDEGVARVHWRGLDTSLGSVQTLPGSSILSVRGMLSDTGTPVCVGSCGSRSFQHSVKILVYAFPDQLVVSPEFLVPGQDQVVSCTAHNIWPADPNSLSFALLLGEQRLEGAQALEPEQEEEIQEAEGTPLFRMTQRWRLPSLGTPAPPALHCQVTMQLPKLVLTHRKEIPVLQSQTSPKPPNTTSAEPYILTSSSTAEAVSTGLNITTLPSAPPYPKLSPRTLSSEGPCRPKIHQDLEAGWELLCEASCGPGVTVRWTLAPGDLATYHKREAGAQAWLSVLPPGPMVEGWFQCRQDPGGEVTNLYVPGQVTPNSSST

[1] = biological target: MAdCAM-IgG1 Fc fusion protein (human); experiment: cell-based or functional assay
[2] = biological target: T2, human MAdCAM (full length) (human, UniProt Q13477 19-382); experiment: cell-based or functional assay
T2 sequence (looked up): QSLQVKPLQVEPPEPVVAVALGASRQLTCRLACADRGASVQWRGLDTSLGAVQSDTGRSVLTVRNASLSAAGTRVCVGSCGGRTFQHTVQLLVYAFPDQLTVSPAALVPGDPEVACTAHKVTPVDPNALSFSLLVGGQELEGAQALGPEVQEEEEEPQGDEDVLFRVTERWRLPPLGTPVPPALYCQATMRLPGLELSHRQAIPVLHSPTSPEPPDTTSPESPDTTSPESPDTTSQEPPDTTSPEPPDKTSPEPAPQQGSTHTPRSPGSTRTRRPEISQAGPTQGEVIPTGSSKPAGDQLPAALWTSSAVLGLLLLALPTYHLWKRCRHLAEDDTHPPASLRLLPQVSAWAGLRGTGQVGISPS

[3] = biological target: T3, chimeric cynomolgus/human MAdCAM (cynomolgus; human, UniProt Q13477 226-382, limits assumed); experiment: cell-based or functional assay
T3 sequence: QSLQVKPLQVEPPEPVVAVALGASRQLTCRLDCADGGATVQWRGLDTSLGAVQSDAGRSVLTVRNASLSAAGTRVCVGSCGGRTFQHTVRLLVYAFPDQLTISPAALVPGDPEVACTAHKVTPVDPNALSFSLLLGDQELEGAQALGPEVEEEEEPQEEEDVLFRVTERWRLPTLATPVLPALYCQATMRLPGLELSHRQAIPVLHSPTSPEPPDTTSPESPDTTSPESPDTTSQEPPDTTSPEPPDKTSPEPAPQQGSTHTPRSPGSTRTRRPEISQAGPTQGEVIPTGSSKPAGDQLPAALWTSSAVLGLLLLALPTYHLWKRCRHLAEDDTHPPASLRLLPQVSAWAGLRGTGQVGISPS

[4] = biological target: T4, MAdCAM-IgG1 Fc fusion protein (human); experiment: SPR BIAcore protocol 1: mAb captured, MAdCAM-IgG1 Fc injected
T4 construct: Made in CHO-DHFR cells; also called MAdCAM-IgFc
Procedure: To perform kinetic analyses, a high density mouse anti-human (IgG₂ and IgG₄) antibody surface over a CMS BIAcore sensor chip was prepared using routine amine coupling. Hybridoma supernatants were diluted 10, 5, 2-fold in HBS-P (10 mM HEPES pH 7.4, 150 mM NaCl, 0.005% Surfactant P20) running buffer containing 100 μg/mL BSA and 10 mg/mL carboxymethyldextran or used neat. Each mAb was captured onto a separate surface using a […] contact time and a 5 mM wash for stabilization of the mAb baseline. MAdCAM-IgG₁ Fc (141 nM) fusion protein was then injected at over all surfaces for one minute, followed by a 3 mM dissociation. The data were normalized for the amount of antibody captured on each surface and evaluated with global fit Langmuir 1:1, using baseline drift models available on the BIAevaluation software provided by BIAcore.

[5] = biological target: T4, MAdCAM-IgG1 Fc fusion protein; experiment: SPR BIAcore protocol 2: mAb amine-coupled, MAdCAM-IgG1 Fc injected
Procedure: Affinity-purified mAb were immobilized onto the dextran layer of a CMS biosensor chip using amine coupling. […] Samples of MAdCAM-IgG₁ Fc fusion protein in running buffer were prepared at concentrations ranging from 0.2-55 nM (a 0 nM solution comprising running buffer alone was included as a zero reference). Samples were randomized and injected in duplicate for 3 mM each across 4 flow cells using HBS-EP (10 mM HEPES pH 7.4, 150 mM NaCl, 3 mM EDTA, 0.005% Surfactant P20) as running buffer. A flow rate of 100 μL/min was used to minimize mass transport limitations. Dissociation of MAdCAM-IgG₁ Fc fusion protein was monitored for 180 mins, the surface regenerated by a 6 sec injection of 25 mM H₃PO₄ (50 μL/min), or 10 mM (6.22.2), 20 mM (6.67.1, 6.73.2, 6.77.1) to 25 mM (6.34.2) and 45 mM NaOH (6.14.2) and the data analysed using the BIAevaluation (v3.1) software package.

[6] = biological target: T4, MAdCAM-IgG1 Fc fusion protein; experiment: cell-based or functional assay; remark: listed apart in the source
Target sequence in this assay (chain, as listed by the source limits assumed): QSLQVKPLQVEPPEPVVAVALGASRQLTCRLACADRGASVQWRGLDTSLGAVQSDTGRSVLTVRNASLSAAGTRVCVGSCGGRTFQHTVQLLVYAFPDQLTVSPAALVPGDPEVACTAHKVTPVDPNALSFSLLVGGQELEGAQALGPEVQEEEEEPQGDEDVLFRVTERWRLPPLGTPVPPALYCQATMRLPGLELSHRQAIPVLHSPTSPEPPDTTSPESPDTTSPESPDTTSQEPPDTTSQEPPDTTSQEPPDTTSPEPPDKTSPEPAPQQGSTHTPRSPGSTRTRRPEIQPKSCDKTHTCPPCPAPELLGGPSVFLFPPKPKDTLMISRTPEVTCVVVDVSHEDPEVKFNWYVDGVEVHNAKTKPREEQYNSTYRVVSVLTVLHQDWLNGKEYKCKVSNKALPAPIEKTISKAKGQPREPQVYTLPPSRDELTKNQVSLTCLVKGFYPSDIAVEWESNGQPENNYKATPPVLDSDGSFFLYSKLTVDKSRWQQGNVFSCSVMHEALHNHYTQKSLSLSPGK

- binding result (recombinant mouse MAdCAM): no binding
- Mean IC50, JY cell adhesion to MAdCAM IgG1 Fc fusion [1]: 0.02 µg/mL
- Mean IC50, JY cell adhesion, MAdCAM FlpIn CHO Assay [2]: 0.44 µg/mL
- Functional IC50, cynomolgus/human MAdCAM-CHO/JY adhesion assay [3]: 0.83 µg/mL
- Kd [4]: 0.1 nM
- koff [4]: 0.00023 s⁻¹
- kon [4]: 2.3e+06 M⁻¹ s⁻¹
- Kd [5]: 0.0325 nM
- koff [5]: 1.4e-05 s⁻¹
- kon [5]: 440000 M⁻¹ s⁻¹
B1: anti-MAdCAM monoclonal antibody 9.8.2 (antibody, human IgG4, kappa, V domains shown)
VH: QVQLVESGGGVVQPGRSLRLSCAASGFTFSSYGMHWVRQAPGKGLEWVAVIWYDGSNEYYADSVKGRFTISRDNSKNTLYLQMNSLRAEDTAVYYCARGAYHFAYWGQGTLVTVSS
VL: DIQMTQSPSSLSASVGDRVTITCQASQDISNYLNWYQQKPGKAPKLLIYDASNLETGVPSRFSGSGSGTDFTFTISSLQPEDIATYSCQHSDNLSITFGQGTRLEIKR
notes: human IgG4 kappa from hybridoma 9.8.2

- MAdCAM IgG1 Fc fusion Assay Mean IC50 (Modified) [6]: 0.049 µg/mL
B2: modified anti-MAdCAM monoclonal antibody 6.34.2-mod (antibody, human IgG2, kappa, V domains shown)
VH: QVQLVESGGGVVQPGRSLRLSCAASGFTFSSYGMHWVRQAPGKGLEWVAVISNDGNNKYYADSVKGRFTISRDNSKNTLYLQMNSLRAEDTAVYYCARDSTAITYYYYGMDVWGQGTTVTVSS
VL: DIQMTQSPSSLSASVGDRVTITCRASQSISSYLNWYQQKPGKAPKLLIYAASGLKRGVPSRFSGSGSGTDFTLTISSLQPEDFATYYCHQSYSLPFTFGPGTKVDIKR

- MAdCAM IgG1 Fc fusion Assay Mean IC50 (Modified) [6]: 0.058 µg/mL
B3: modified anti-MAdCAM monoclonal antibody 6.22.2-mod (antibody, human IgG2, kappa, V domains shown)
VH: QVQLVESGGGVVQPGRSLRLSCAASGFTFSSDGMHWVRQAPGKGLEWVAIIWYDGSNKYYADSVKGRFTISRDNSKNTLYLQMNSLRAEDTAVYYCARDPGYYYGMDVWGQGTTVTVSS
VL: EIVLTQSPDFQSVTPKEKVTITCRASQRIGSSLHWYQQKPDQSPKLLIKYASQSFSGVPSRFSGSGSGTDFTLTINSLEAEDAATYYCHQSGRLPLTFGGGTKVEIKR

- binding result (recombinant mouse MAdCAM): no binding
- Mean IC50, JY cell adhesion to MAdCAM IgG1 Fc fusion [1]: 0.02 µg/mL
- Mean IC50, JY cell adhesion, MAdCAM FlpIn CHO Assay [2]: 0.369 µg/mL
- Kd [4]: 0.093 nM
- koff [4]: 0.00013 s⁻¹
- kon [4]: 1.4e+06 M⁻¹ s⁻¹
B4: anti-MAdCAM monoclonal antibody 6.73.2 (antibody, human IgG4, kappa, V domains shown)
VH: EVQLLESGGDLVQPGGSLRLSCAASGFTFRSYAMNWVRQAPGKGLEWVSVISGRGGTTYYADSVKGRFTISRDNSKNTLYLQMNSLRAEDAAVYYCAKIAVAGEGLYYYYGMDVWGQGTTVTVSS
VL: DIQMTQSPSSLSASVGDRVTFTCRASQNITNYLNWYQQKPGKAPKLLIYAASSLPRGVPSRFRGSGSGTDFTLTISSLQPEDFATYYCQQSYSNPPECGFGQGTTLDIKR
notes: human IgG4 kappa from hybridoma 6.73.2

- binding result (recombinant mouse MAdCAM): no binding
- Mean IC50, JY cell adhesion to MAdCAM IgG1 Fc fusion [1]: 0.03 µg/mL
- Mean IC50, JY cell adhesion, MAdCAM FlpIn CHO Assay [2]: 0.052 µg/mL
- Kd [4]: ≤ 0.042 nM
- koff [4]: ≤ 1e-05 s⁻¹
- kon [4]: 240000 M⁻¹ s⁻¹
- Kd [5]: 0.0236 nM
- koff [5]: 1.3e-07 s⁻¹
- kon [5]: 5500 M⁻¹ s⁻¹
B5: anti-MAdCAM monoclonal antibody 1.7.2 (antibody, human IgG2, kappa, V domains shown)
VH: EVQLVESGGGLVKPGGSLRLSCVASGFTFTNAWMIWVRQAPGKGLEWVGRIKRKTDGGTTDYAAPVKGRFTISRDDSKNTLYLQMNSLKTEDTAVYYCTTGGVAEDYWGQGTLVTVSS
VL: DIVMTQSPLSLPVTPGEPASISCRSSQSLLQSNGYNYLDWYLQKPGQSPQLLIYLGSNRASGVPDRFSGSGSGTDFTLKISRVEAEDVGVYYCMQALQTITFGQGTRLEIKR
notes: human IgG2 kappa from hybridoma 1.7.2; biotinylated for staining of human sections

- binding result (recombinant mouse MAdCAM): no binding
- Mean IC50, JY cell adhesion to MAdCAM IgG1 Fc fusion [1]: 0.027 µg/mL
- Mean IC50, JY cell adhesion, MAdCAM FlpIn CHO Assay [2]: 0.424 µg/mL
- Kd [4]: ≤ 0.035 nM
- koff [4]: ≤ 1e-05 s⁻¹
- kon [4]: 290000 M⁻¹ s⁻¹
- Kd [5]: 0.128 nM
- koff [5]: 2.3e-05 s⁻¹
- kon [5]: 180000 M⁻¹ s⁻¹
B6: anti-MAdCAM monoclonal antibody 1.8.2 (antibody, human IgG2, kappa, V domains shown)
VH: B5 VH with A24V
VL: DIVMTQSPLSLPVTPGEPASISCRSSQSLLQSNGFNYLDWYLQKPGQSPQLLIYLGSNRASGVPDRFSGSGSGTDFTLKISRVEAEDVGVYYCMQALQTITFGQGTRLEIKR
notes: human IgG2 kappa from hybridoma 1.8.2
